Here are results for three molecules from publication PMC10776578, “Epstein-Barr virus-driven B cell lymphoma mediated by a direct LMP1-TRAF6 complex” (Nature Communications, 2024).

Assay [1] has as its system HA-LMP1. Briefly: Coimmunoprecipitation of HA-LMP1 with Flag-TRAF6 mutants in HEK293 cells. The format is cell-based, Epstein-Barr virus. Particulars: for coprecipitated HA-LMP1 signal (densitometry), mean: HEK293, mean of n = 3; for interaction of TRAF6 mutants with LMP1 in HEK293 cells (in words): coimmunoprecipitation. As to the method:
Immunoblotting was essentially performed as described. Proteins were detected on nitrocellulose membranes (Bio-Rad, #1620115) using the following primary antibodies: α−6*His-tag (clone 4A4 or 2F12, source: antibody facility of the Helmholtz Center Munich, hybridoma supernatants were used at a 1:10 dilution)[75], α-TRAF6 (H-274, Santa Cruz Biotech., #sc-7221, used at 1:1000), α-HA-tag (12CA5, Sigma-Aldrich, #11583816001, used at 0.4 µg per mL), α-IκBα (C-21, Santa Cruz Biotech., #sc-371, used at 1:500) and α-Tubulin (B-5-1-2, Santa Cruz Biotech., #sc-23948, used at 1:500). Horseradish peroxidase-coupled antibodies were used as secondary antibodies (Cell Signalling Technology, #7074 or #7076, respectively, both used at 1:5000). ECL signals were captured on X-ray films (Agfa Healthcare) and quantified by densitometry using the ImageJ software. Uncropped scans of immunoblots indicating molecular weights are provided in Supplementary Fig. 6.
HEK293 cells were transfected with 1 µg of pRK5-Flag TRAF6 plasmids, 1 µg of pCMV-HA-LMP1 and 6 µg of pRK5 per 10 cm cell culture dish using PolyFect Transfection Reagent (Qiagen, #301107) in RPMI without supplements. Cells were incubated with the plasmid transfection mix for 4 h before the medium was changed to RPMI full medium. After 24 h, the cells were lysed in NP40-lysis buffer (50 mM HEPES pH 7.5, 150 mM NaCl, 5 mM EDTA, 0.5 mM sodium orthovanadate, 0.5 mM PMSF, 0.5 mM sodium molybdate, and cOmplete protease inhibitor cocktail). Lysates were cleared by centrifugation at 15000 x g for 10 min at 4 °C, and the protein concentration was adjusted to 1 mg per mL. For immunoprecipitation 4 mL of lysate was incubated with the α-Flag antibody 6F7 (Sigma-Aldrich, #F3165; covalently coupled to protein-G-Sepharose) for 1 h at 4 °C. The beads were pelleted at 15000 x g for 30 seconds at 4 °C, washed twice with NP40-lysis buffer, and analyzed by immunoblotting.

Assay [2] relates to GST-LMP1_181-386. The assay can be described thus: AlphaScreen PPI, TRAF6 mutants binding to LMP1. Also on record: species or system Epstein-Barr virus; TRAF6 binding to LMP1 (AlphaScreen), mean: unit not given here. Particulars: for effect of TRAF6 mutation on binding to LMP1 (in words): AlphaScreen PPI; for TRAF6 binding to LMP1 (AlphaScreen), mean / TRAF6 binding to LMP1 (AlphaScreen): Figure 2a; for TRAF6 binding to LMP1 (AlphaScreen), mean: mean of n = 3. As to the method:
Fig. 2 LMP1 binds to the receptor-interacting surface of TRAF6. a Mutations within the receptor-interacting surface of TRAF6 affect binding to LMP1. The TRAF6 mutants R392A, K469A, F471A, and Y473A were tested LMP1 in AlphaScreen PPI experiments with GST-LMP1_181-386. Data are mean values ± SD of three independent experiments. Statistics: one-way ANOVA. b TRAF6 R392A differentiates between CD40 and LMP1/RANK. AlphaScreen PPI experiments with GST-CD40_216-277. Data are mean values ± SD of three independent experiments. […] AlphaScreen PPI experiments with GST-RANK314-355. Data are mean values ± SD of four independent experiments. Statistics: one-way ANOVA. d TRAF6 mutants that fail to interact with LMP1 in PPI assays are also unable to bind cellular LMP1. HEK293 cells were co-transfected with HA-LMP1 and the indicated Flag-TRAF6 mutants. Flag-TRAF6 was immunoprecipitated (IP) via its Flag-tag and coprecipitated HA-LMP1 was detected on immunoblots by an α-HA antibody. Uncropped blots in Supplementary Fig. 6b. For statistical analysis LMP1 signals were digitalized and quantified (graph). Data are mean values ± SD of three independent experiments. […] TRAF6 recruitment is dependent on amino acids 371 − 386 of LMP1 (small panel). Confocal microscopy images show representative cells of three independent experiments. Quantitative data are mean values ± SD of ten randomly selected cells per transfection of one representative experiment (graph). Scale bars: 10 µm. Statistics: one-way ANOVA. p-values: *p ≤ 0.05, **p ≤ 0.01, ***p ≤ 0.001, ****p ≤ 0.0001. Source data and exact p-values in the Source Data file.
AlphaScreen experiments were performed in 96- or 384-well plates (Perkin Elmer, OptiPlate). In both assay formats, His-TRAF and GST-LMP1, GST-CD40, or GST-RANK proteins were incubated together in 40 µL of PBS (protein concentrations were calculated to the final reaction volume of 60 µL) supplemented with 0.5% BSA (Sigma, #A7030) and 0.1% Tween-20 (AppliChem, #A4974), for 1 h at room temperature (RT). If not indicated otherwise, standard protein concentrations were 300 nM for His-TRAF proteins and 100 nM for GST-LMP1 proteins. Ni-NTA-acceptor (Perkin Elmer, #6760619 C) and GST-acceptor (Perkin Elmer, # 6765300) beads were added each to a final concentration of 1–4 µg per mL in a final reaction volume of 60 µL and incubated for 1 h at RT in the dark. AlphaScreen PPI signals were measured in a CLARIOstar reader (BMG Labtech GmbH).
A general note: In Alpha technology, singlet oxygen from a donor bead excites a nearby acceptor bead.

The test system of assay [3] is HA-LMP1. Briefly: Confocal immunofluorescence colocalization of Flag-TRAF6 with HA-LMP1 in HeLa cells. The format is cell-based, Epstein-Barr virus. The conditions noted are these: for colocalization with HA-LMP1 (in words): confocal microscopy; for colocalization of TRAF6 with LMP1, mean: mean of ten cells. As to the method: HeLa cells were seeded onto cover glasses (Thermo Scientific, Menzel) in 24-well plates one day before transfection. Cells were transfected at 50–60% confluency with 50 ng of pCMV-HA-LMP1 plasmids and 100 ng of pRK5-Flag-TRAF6 plasmids, adjusted to a total of 500 ng DNA per sample with pRK5 empty vector, using Lipofectamine 2000 (Thermo Fisher Scientific) according to the manufacturer’s instructions. At 24 h posttransfection, cells were washed once with PBS and fixed with 4% paraformaldehyde (Sigma-Aldrich) for 20 min at RT, followed by permeabilization with 0.3% (v/v) Triton X-100 and blocking with 5% (v/v) FBS in PBS for 1 h at RT. For immunostaining, the cells were incubated overnight with the primary antibodies α-HA (1:1000, clone 16B12, BioLegend) and α-DYKDDDDK (1:1000, clone L5, BioLegend) at 4 °C. The secondary antibodies goat α-mouse Alexa 488 (1:500, cross-adsorbed, Invitrogen, #A-11029) and goat α-rat Alexa 555 (1:500, cross-adsorbed, Invitrogen, #A-21434) were added for 1.5 h at RT. Microscope slides were sealed with cover glasses using Mowiol mounting medium (Sigma-Aldrich). Nuclei were stained with Hoechst 33258 (Sigma-Aldrich). All samples were imaged using a Leica TCS SP5 confocal microscope with 405 nm, 488 nm, 543 nm or 633 nm laser lines, scanning each channel separately under image capture conditions that eliminated channel overlap. For each single experiment, 10 transfected cells positive for both constructs were randomly captured as single-cell images for quantification. The resulting images were then analyzed using the Leica TCS SP5 colocalization analyses application (LAS AF Version 2.7.3.9723). Analysis was performed with default parameters.

The mark [4] stands for this setting: relative to mean wt 100, replicate 1.

Entries after “also recorded” stand apart in the source; their conditions may differ.

B1: R392A (protein, UniProt Q9Y4K3 1-522, looked up, variant R392A)
TNF receptor-associated …: MSLLNCENSCGSSQSESDCCVAMASSCSAVTKDDSVGGTASTGNLSSSFMEEIQGYDVEFDPPLESKYECPICLMALREAVQTPCGHRFCKACIIKSIRDAGHKCPVDNEILLENQLFPDNFAKREILSLMVKCPNEGCLHKMELRHLEDHQAHCEFALMDCPQCQRPFQKFHINIHILKDCPRRQVSCDNCAASMAFEDKEIHDQNCPLANVICEYCNTILIREQMPNHYDLDCPTAPIPCTFSTFGCHEKMQRNHLARHLQENTQSHMRMLAQAVHSLSVIPDSGYISEVRNFQETIHQLEGRLVRQDHQIRELTAKMETQSMYVSELKRTIRTLEDKVAEIEAQQCNGIYIWKIGNFGMHLKCQEEEKPVVIHSPGFYTGKPGYKLCMALHLQLPTAQRCANYISLFVHTMQGEYDSHLPWPFQGTIRLTILDQSEAPVRQNHEEIMDAKPELLAFQRPTIPRNPKGFGYVTFMHLEALRQRTFIKDDTLLVRCEVSTRFDMGSLRREGFQPRSTDAGV
As for B1, in assay [1], the “coprecipitated HA-LMP1 signal (densitometry), mean” value (“coprecipitated HA-LMP1 signal” for short) worked out at 2761976 and the “interaction of TRAF6 mutants with LMP1 in HEK293 cells (in words)” value (“interaction of TRAF6 mutants with LMP1” below) is “abolished the TRAF6 interaction with LMP1”. In assay [2], the “effect of TRAF6 mutation on binding to LMP1 (in words)” value (“effect of TRAF6 mutation on binding” below) was “prevented the interaction of TRAF6 with LMP1 and RANK”; the “TRAF6 binding to LMP1 (AlphaScreen), mean” value (“TRAF6 binding to LMP1 … mean” for short) was 4.615. Moreover, the “TRAF6 binding to LMP1 (AlphaScreen)” value in assay [2] (setting [4]) is on record as 2.0. For the same molecule, in assay [2] (replicate 2), the “TRAF6 binding to LMP1 (AlphaScreen)” value is reported as 6.0. Besides, the “TRAF6 binding to LMP1 (AlphaScreen)” value in assay [2] (replicate 3) was 5.9. In assay [3], the “colocalization with HA-LMP1 (in words)” value was “fail to interact with LMP1 wild-type clusters; also recorded: strongly decreased colocalization with HA-LMP1” and the “colocalization of TRAF6 with LMP1, mean” value is on record as 16.72.

B2: F471A (protein, UniProt Q9Y4K3 1-522, looked up, variant F471A)
TNF receptor-associated …: MSLLNCENSCGSSQSESDCCVAMASSCSAVTKDDSVGGTASTGNLSSSFMEEIQGYDVEFDPPLESKYECPICLMALREAVQTPCGHRFCKACIIKSIRDAGHKCPVDNEILLENQLFPDNFAKREILSLMVKCPNEGCLHKMELRHLEDHQAHCEFALMDCPQCQRPFQKFHINIHILKDCPRRQVSCDNCAASMAFEDKEIHDQNCPLANVICEYCNTILIREQMPNHYDLDCPTAPIPCTFSTFGCHEKMQRNHLARHLQENTQSHMRMLAQAVHSLSVIPDSGYISEVRNFQETIHQLEGRLVRQDHQIRELTAKMETQSMYVSELKRTIRTLEDKVAEIEAQQCNGIYIWKIGNFGMHLKCQEEEKPVVIHSPGFYTGKPGYKLCMRLHLQLPTAQRCANYISLFVHTMQGEYDSHLPWPFQGTIRLTILDQSEAPVRQNHEEIMDAKPELLAFQRPTIPRNPKGAGYVTFMHLEALRQRTFIKDDTLLVRCEVSTRFDMGSLRREGFQPRSTDAGV
In the case of B2, in assay [1], the “coprecipitated HA-LMP1 signal” value turned out to be 5862061 and the “interaction of TRAF6 mutants with LMP1” value is “abolished the TRAF6 interaction with LMP1”. Further, in assay [2], the “effect of TRAF6 mutation on binding” value is reported as “complete loss of TRAF6 binding” and the “TRAF6 binding to LMP1 … mean” value was 5.785. The “TRAF6 binding to LMP1 (AlphaScreen)” value in assay [2] (setting [4]) is 2.7. Besides, the “TRAF6 binding to LMP1 (AlphaScreen)” value in assay [2] (replicate 2) amounted to 7.8. For the same molecule, in assay [2] (replicate 3), the “TRAF6 binding to LMP1 (AlphaScreen)” value is reported as 6.8. In assay [3], the “colocalization with HA-LMP1 (in words)” value is “fail to interact with LMP1 wild-type clusters; also recorded: strongly decreased colocalization with HA-LMP1” and the “colocalization of TRAF6 with LMP1, mean” value is 13.45.

B3: Y473A (protein, UniProt Q9Y4K3 1-522, looked up, variant Y473A)
TNF receptor-associated …: MSLLNCENSCGSSQSESDCCVAMASSCSAVTKDDSVGGTASTGNLSSSFMEEIQGYDVEFDPPLESKYECPICLMALREAVQTPCGHRFCKACIIKSIRDAGHKCPVDNEILLENQLFPDNFAKREILSLMVKCPNEGCLHKMELRHLEDHQAHCEFALMDCPQCQRPFQKFHINIHILKDCPRRQVSCDNCAASMAFEDKEIHDQNCPLANVICEYCNTILIREQMPNHYDLDCPTAPIPCTFSTFGCHEKMQRNHLARHLQENTQSHMRMLAQAVHSLSVIPDSGYISEVRNFQETIHQLEGRLVRQDHQIRELTAKMETQSMYVSELKRTIRTLEDKVAEIEAQQCNGIYIWKIGNFGMHLKCQEEEKPVVIHSPGFYTGKPGYKLCMRLHLQLPTAQRCANYISLFVHTMQGEYDSHLPWPFQGTIRLTILDQSEAPVRQNHEEIMDAKPELLAFQRPTIPRNPKGFGAVTFMHLEALRQRTFIKDDTLLVRCEVSTRFDMGSLRREGFQPRSTDAGV
On to B3, for which, in assay [1], the “coprecipitated HA-LMP1 signal” value is 5322536 and the “interaction of TRAF6 mutants with LMP1” value was “abolished the TRAF6 interaction with LMP1”. In assay [2], the “effect of TRAF6 mutation on binding” value is “complete loss of TRAF6 binding” and the “TRAF6 binding to LMP1 … mean” value came to 1.355. For the same molecule, the “TRAF6 binding to LMP1 (AlphaScreen)” value in assay [2] (setting [4]) amounted to 0.9. Besides, the “TRAF6 binding to LMP1 (AlphaScreen)” value in assay [2] (replicate 2) is listed as 1.6. For the same molecule, the “TRAF6 binding to LMP1 (AlphaScreen)” value in assay [2] (replicate 3) is on record as 1.5. Further, in assay [3], the “colocalization with HA-LMP1 (in words)” value is on record as “fail to interact with LMP1 wild-type clusters; also recorded: strongly decreased colocalization with HA-LMP1” and the “colocalization of TRAF6 with LMP1, mean” value is given as 24.45.
